Source: patent publication US20260116967A1 (CSPC MEGALITH BIOPHARMACEUTICAL, published 2026)

B1: Hab21F10C10.12 (antibody, V domains shown)
VH: QVQLVQSGAEVKKPGASVKVSCKASGYTFINNFIEWVRQAPGQGLEWMGVINPGSGDANYAQKFQGRVTMTRDTSISTAYMELSRLRSDDTAVYYCASHWLAYWGQGTTVTVSS
VL: EIVMTQSPPTLSLSPGERVTLSCRSSQSLLSSGNQKNYLSWYQQKPGQAPRLLIYGASTRETGIPARFSGSGSGTDFTLTISSLQPEDFAVYYCQNGHFYPYTFGGGTKLEIK
notes: Humanized antibody; also called Hab21F10C10-VH.1d + Hab21F10C10-VL.1c
B2: Hab43F7C9.12 (antibody, V domains shown)
VH: QVQLQESGPGLVKPSETLSLTCTVSGYSISSDYAWNWIRQPPGKGLEWIGYIRYNGNTNYNPSLKSRVTISVDTSKNQFSLKLSSVTAADTAVYYCAIIYYDYDGFVYWGQGTTVTVSS
VL: DIQMTQSPSSLSASVGDRVTITCRASQNVYENLHWYQQKPGKAPKLLIKFASDSISGVPSRFSGSGSGTDFTLTISSLQPEDFATYYCLQLYSTPYTFGGGTKLEIK
notes: Humanized antibody; also called Hab43F7C9-VH.1d + Hab43F7C9-VL.1c; 43H7C9.12
B3: SRF813-IgG1 (antibody, V domains shown)
VH: QVQLVQSGAEVKKPGSSVKVSCKASGGTFSSAAISWVRQAPGQGLEWMGNIIPIVGIANYAQKFQGRVTITADESTSTAYMELSSLRSEDTAVYYCARDTGRGYTRHFWFDPWGQGTLVTVSS
VL: DIQMTQSPSSLSASVGDRVTITCRASQSISSYLNWYQQKPGKAPKLLIYAASSLQSGVPSRFSGSGSGTDFTLTISSLQPEDFATYYCQQSDILYTFGGGTKVEIK
B4: Hab1B10E8.6 (antibody, V domains shown)
VH: QVQLVQSGAEVKKPGASVKVSCKASGYSFPSYWMHWVRQAPGQGLEWIGEINPSNGLTNYNEQFRNRVTMTVDTSTSTVYMELSSLRSEDTAVYYCARHHGSTYYALDSWGQGTLVTVSS
VL: DIVMTQSPDSLAVSLGERATINCKSSQSLLNSINQKNFLAWYQQKPGQPPKLLVYFASTRESGVPDRFSGSGSGTDFTLTISSLQAEDVAVYFCQQHYSTPPTFGGGTKLEIK
notes: Humanized antibody; also called Hab1B10E8-VH.1b + Hab1B10E8-VL.1b
B5: 43F7C9-hIgG1 (antibody, V domains shown)
VH: DVQLQESGPGLVKPSQSLSLTCTVTGYSITSDYAWNWIRQFPGNRLEWMGYIRYNGNTNYNPSLKSRISITRDTSKNQFFLQLNSVTTEDTATYYCAIIYYDYDGFVYWGQGTLVTVSA
VL: DILLTQSPATLSVTPGETVSLSCRASQNVYENLHWYQQKSHRSPRLLIKFASDSISGIPSRFTGSGSGTDYTLSINSVKPEDEGIYYCLQLYSTPYTFGGGTELEIK
notes: also called 43H7C9-hIgG1; 43H7C9
B6: 21F10C10-hIgG1 (antibody, V domains shown)
VH: QVQLQQSGAELVRPGTSVKVSCKASGYAFINNFIEWVKQRPGQGLEWIGVINPGSGDANYNEKFKGKATLTADKSSTTAYIQLSSLTSDDSAVYFCASHWLAYWGQGTLVTVSA
VL: DIVMTQSPSSLSVSAGEKVTMSCKSSQSLLSSGNQKNYLAWYQQKPGQPPKLLIYGASTRESGVPDRFTGSGSGTDFTLTISSVQAEDLAVYYCQNGHFYPYTFGGGTKLEIK
notes: also called 21F10C10 chimeric antibody

How the values were obtained:
[1] = molecular target: T1, human PVRIG on Jurkat-hPVRIG cells (human, UniProt Q6DKI7 41-326); test: cell-based or functional assay
T1 sequence (looked up): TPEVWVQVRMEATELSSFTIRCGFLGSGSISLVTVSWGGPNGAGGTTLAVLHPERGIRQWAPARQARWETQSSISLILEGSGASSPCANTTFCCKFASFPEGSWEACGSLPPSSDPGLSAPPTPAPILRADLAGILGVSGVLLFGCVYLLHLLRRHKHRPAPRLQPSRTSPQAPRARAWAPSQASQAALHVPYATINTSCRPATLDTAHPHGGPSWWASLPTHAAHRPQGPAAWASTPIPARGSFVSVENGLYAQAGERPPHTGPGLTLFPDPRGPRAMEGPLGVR

[2] = molecular target: T1, human PVRIG on Jurkat-hPVRIG cells; test: flow cytometry on Jurkat-hPVRIG cells
Experimental: The cells were inoculated at a density of 2×10⁶/ml in 96-well plate, 100 μl/well. 4-fold gradient dilutions of antibodies (0-66.7 nM) were added to incubate at 4° C. for 1 h. Goat anti-human secondary antibody was added, and the cells were labeled in the dark at 4° C. for 45 min. After the cells were collected and washed, the fluorescence intensity of the cells was read by flow cytometry. […] At the same time, the affinity of Hab43F7C9.12 in recognizing cell surface PVRIG is better than that of the control molecule SRF813.

[3] = molecular target: T2, cynomolgus monkey PVRIG on 293T-cynoPVRIG cells (cynomolgus monkey, UniProt A0A2K5WVV8 41-322); test: flow cytometry on 293T-cynoPVRIG cells
T2 construct: whole, on cells; also called full-length monkey PVRIG
T2 sequence: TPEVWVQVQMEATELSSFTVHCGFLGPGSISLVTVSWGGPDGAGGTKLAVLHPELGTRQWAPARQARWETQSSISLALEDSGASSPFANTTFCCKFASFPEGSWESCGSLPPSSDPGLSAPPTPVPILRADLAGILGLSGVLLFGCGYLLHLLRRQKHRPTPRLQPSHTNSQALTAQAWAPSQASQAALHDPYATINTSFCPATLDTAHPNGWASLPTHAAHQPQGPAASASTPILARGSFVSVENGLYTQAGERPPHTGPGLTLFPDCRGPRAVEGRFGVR
Experimental: The cells were seeded in a 96-well plate at a density of 2×10⁶, 100 μl/well, then washed three times with FACS buffer and the supernatant was discarded. Antibodies diluted with PBS buffer (0-2.5 nM) in a gradient were added to incubate at 4° C. for 1 h. The cells were washed three times with FACS buffer, and then labeled with Alexa Fluor 488-labeled goat anti-human IgG antibody at 4° C. in the dark for 45 min. The cells were washed three times with FACS buffer, and the fluorescence intensity of the cells was read by flow cytometry.

[4] = molecular target: T3, recombinant cynomolgus monkey (Cyno) PVRIG protein (cynomolgus monkey, UniProt A0A2K5WVV8 41-171); test: ELISA, Cyno-PVRIG protein coated at 500 ng/ml
T3 construct: also called soluble cynomolgus monkey PVRIG
T3 sequence: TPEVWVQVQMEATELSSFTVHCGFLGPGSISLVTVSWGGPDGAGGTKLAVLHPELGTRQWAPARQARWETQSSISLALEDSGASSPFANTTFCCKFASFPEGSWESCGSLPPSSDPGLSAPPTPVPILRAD
Experimental: The affinity of humanized antibody to recombinant cynomolgus monkey (Cyno) PVRIG protein was determined by ELISA. The Cyno-PVRIG protein was diluted to 500 ng/ml, and coated on the ELISA plate. After blocking, a 3-fold gradient dilution of the antibody (0-33.3 nM) was added. After incubation with goat anti-human secondary antibody for 1 hour, the plate was washed and the color was developed to read.

[5] = molecular target: T4, recombinant human PVRIG protein (PVRIG extracellular full-length protein) (human, UniProt Q6DKI7 41-171); test: ELISA, human PVRIG protein coated at 500 ng/ml
T4 construct: also called recombinant PVRIG protein; soluble PVRIG
T4 sequence: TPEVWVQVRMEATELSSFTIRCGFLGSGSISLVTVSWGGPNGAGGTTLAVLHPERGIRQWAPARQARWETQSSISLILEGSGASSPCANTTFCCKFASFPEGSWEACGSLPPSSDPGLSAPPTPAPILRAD
Experimental: The affinity of humanized antibody to recombinant human PVRIG protein was determined by ELISA. The PVRIG protein was diluted to 500 ng/ml, and coated on the ELISA plate. After blocking, 3-fold gradient dilution of antibody (0-66.7 nM) was added, then performed color development and reading after incubation with goat anti-human secondary antibody.

human PVRIG-His protein = molecular target: T5, human PVRIG-His protein (human, UniProt Q6DKI7 41-171, limits assumed); test: BLI (Fortebio), PVRIG-His on HIS1K biosensor, antibody as analyte
T5 construct: not shown: His tag
T5 sequence (looked up): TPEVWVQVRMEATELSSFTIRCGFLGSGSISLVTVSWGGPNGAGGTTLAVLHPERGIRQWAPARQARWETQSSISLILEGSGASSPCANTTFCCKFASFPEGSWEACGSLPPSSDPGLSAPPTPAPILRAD
Experimental: The HIS1K biosensor was used, and human PVRIG-His protein was immobilized on the biosensor to a binding response threshold of 0.3 nm. After a 120 s baseline step, the sensor was immersed in an anti-PVRIG antibody diluted with 0.02% PBST buffer, with a starting antibody concentration of 25 nM, performing gradient dilution of 2-fold concentration with 7 gradients set. The binding and dissociation time of the immobilized substance and the analyte were 120 s and 300 s, respectively. The affinity data of antigen and antibody was calculated by regression analysis software based on the binding curve.

PVRIG-hFc protein [6] = molecular target: T6, PVRIG-hFc protein (human, UniProt Q6DKI7 41-171, limits assumed); test: blocking ELISA: antibody titrated against PVRIG-hFc binding to coated CD112-His
T6 construct: also called human PVRIG protein; not shown: human Fc (hFc)
T6 sequence (looked up): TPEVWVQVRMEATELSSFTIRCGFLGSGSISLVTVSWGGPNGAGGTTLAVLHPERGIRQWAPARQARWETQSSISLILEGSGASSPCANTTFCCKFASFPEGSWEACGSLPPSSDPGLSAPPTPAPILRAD
Experimental: The ELISA method was used to determine the ability of humanized PVRIG antibody to block the binding of human CD112 protein to human PVRIG protein. The CD112-His protein was diluted to a concentration of 1 μg/ml, and coated on the ELISA plate. A 3-fold gradient dilution of the antibody (0-133 nM) was mixed with the PVRIG-hFc protein and added to the coated ELISA plate to incubate at 37° C. for 1 hour. After washing the plate, the HRP-labeled goat anti-human Fc antibody was added to incubate at 37° C. for 1 hour. After washing the plate, the color developing solution was added, then adding the stop solution after 5 minutes and reading the results. The blocking results of the antibodies obtained are shown in FIG. 6 and Table 12 after GraphPad fitting. […] At the same time, Hab1B10E8.6, Hab21F10C10.12 and Hab43F7C9.12 have better ELISA blocking ability than the control molecule SRF813.

PVRIG-hFc protein [7] = molecular target: T6, PVRIG-hFc protein; test: blocking flow cytometry: antibody titrated against PVRIG-hFc (1 ug/ml) binding to 293T-CD112 cells
Experimental: The cells were washed three times with FACS buffer, and then labeled with Alexa Fluor 488-labeled goat anti-human IgG antibody at 4° C. in the dark for 50 min. Then the cells were washed three times with FACS buffer, and the fluorescence intensity of the cells was read by flow cytometry.

[8] = molecular target: T4, recombinant human PVRIG protein (PVRIG …); test: ELISA, PVRIG extracellular protein coated at 500 ng/ml
Experimental: VH and VL were respectively constructed into a eukaryotic expression vector comprising hIgG1-kappa constant region. The obtained eukaryotic expression vector was transiently transfected into HEK-293 cells and cultured for 6 days. The culture supernatant was harvested and purified by Protein A to obtain target antibodies, which were named 21F10C10-hIgG1 and 43F7C9-hIgG1, respectively. The affinity of the antibodies to the recombinant PVRIG protein was determined by ELISA. The PVRIG extracellular full-length protein diluted to a concentration of 500 ng/ml was coated on the ELISA plate. The plate was washed 3 times with PBST buffer, and then 200 μl of PBS buffer containing 2% BSA was added, and the plate was blocked at 37° C. for 2 h. After the blocking was completed, the plate was washed 3 times with PBST buffer; 3-fold gradient dilutions of the test antibody (0-33.3 nM) were added, incubated at 37° C. for 2 h; then the plate was washed 3 times with PBST buffer. Horseradish peroxidase-labeled goat anti-human antibody was added, incubated at 37° C. for 1 h; then the plate was washed three times with PBST buffer. TMB single-component color developing solution was added for color development, reading the absorbance value after adding the stop solution.

Row | Binder | EC50 (nM) of reporter genes [1] [nM] | EC50 [2] [nM] | EC50 [3] [nM] | EC50 [4] [nM] | EC50 [5] [nM] | Kd (human PVRIG-His protein) [nM] | koff (human PVRIG-His protein) [s⁻¹] | kon (human PVRIG-His protein) [M⁻¹ s⁻¹] | EC50 (PVRIG-hFc protein [6]) [nM] | EC50 (PVRIG-hFc protein [7]) [nM] | EC50 [8] [nM]
1 | B1 | 0.164 | 0.0553 | 0.267 | 0.364 | 0.165 | < 0.001 | < 1e-07 | 837000 | 0.226 | 2.52 | –
2 | B2 | 0.0651 | 0.0178 | 0.108 | 0.0797 | 0.145 | < 0.001 | < 1e-07 | 963000 | 0.258 | 1.46 | –
3 | B3 | 0.963 | 0.0497 | 0.15 | – | – | – | – | – | 0.431 | – | –
4 | B4 | 0.184 | 0.0501 | 0.124 | 0.141 | 0.0869 | < 0.001 | < 1e-07 | 782000 | 0.285 | 2.56 | –
5 | B5 | – | – | – | – | – | – | – | – | – | – | 0.29
6 | B6 | – | – | – | – | – | – | – | – | – | – | 0.122
